Usually Kd stands for the concentration at which binding is half-saturated. What is called kon is the second-order rate constant of association.

In this test the target is recombinant 50 kD C-terminal BoNT/A domain (HC50A) (Clostridium botulinum, UniProt P0DPI0 871-1296).
recombinant 50 kD C-terminal BoNT/A domain (HC50A), sequence (P0DPI0 871-1296 limits assumed): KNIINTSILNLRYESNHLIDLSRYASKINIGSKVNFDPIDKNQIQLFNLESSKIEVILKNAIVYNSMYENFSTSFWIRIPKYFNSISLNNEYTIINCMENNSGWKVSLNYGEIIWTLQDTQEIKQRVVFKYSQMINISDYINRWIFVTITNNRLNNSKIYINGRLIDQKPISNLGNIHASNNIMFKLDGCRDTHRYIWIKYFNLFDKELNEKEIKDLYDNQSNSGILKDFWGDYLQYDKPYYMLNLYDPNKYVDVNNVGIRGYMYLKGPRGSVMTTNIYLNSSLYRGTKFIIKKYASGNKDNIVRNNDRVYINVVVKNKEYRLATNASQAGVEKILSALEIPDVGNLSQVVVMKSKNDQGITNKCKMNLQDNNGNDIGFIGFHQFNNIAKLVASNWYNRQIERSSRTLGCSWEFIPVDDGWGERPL

B1: 6A antibody (human monoclonal IgG secreted by hybridoma 6A, ATCC accession no. PTA-8870) (antibody, V domains shown)
VH: EVQLVESGGGVVKPGGSLRLSCTAFGFTFEDFGMHWVRQAPGKGLEWVSLVSGEGGSKYYADSVKGRFTISRDNKKHSLYLHMNSLKTEDTALYYCAKDVWTYHYDSSGYQYYYGMDVWGQGTTVTVSS
VL: QEPAVSVALGQTVRITCQGDSLRSYSASWYQQRPGQAPLFVMYGKDKRPSGIPDRFSGSASGNTASLTITGAQAEDEADYYCNCRDSSNQYWIFGGGTKVTVL
For the molecule B1, the Kd amounted to 6.9 pM and the kon worked out at 440000 M⁻¹ s⁻¹.

The values above are taken from patent US20110002937A1 (THOMAS JEFFERSON UNIVERSITY, published 2011).
